The record followed here is PMC3290749 (Oncogene, 2011).

In the experiment the target is IgB-1 (UniProt P00533 25-645). Kind of experiment: ELISA. Background: ELISA stands for enzyme-linked immunosorbent assay.

B1: heparin-binding EGF like growth factor (ligand, UniProt Q99075 63-148, looked up)
chain: DLQEADLDLLRVTLSSKPQALATPNKEEHGKRKKKGKGLGKKRDPCLRKYKDFCIHGECKYVKELRAPSCICHPGYHGERCHGLSL
Regarding B1, the binding result is “binds”.
